# Experimental data from US20190262327A1, “COMBINATION OF A BACE INHIBITOR AND AN ANTIBODY OR ANTIGEN-BINDING FRAGMENT FOR THE TREATMENT OF A DISORDER ASSOCIATED WITH THE ACCUMULATION OF AMYLOID BETA” (ASTRAZENECA AB, priority 2016, published 2019).
# B1: Abet0380-GL IgG1-TM: germlined Abet0380; VH SEQ ID NO: 524, VL SEQ ID NO: 533; human IgG1 triple mutant format (antibody, listed as Homo sapiens, V domains shown)
# VH: EVQLLESGGGLVQPGGSLRLSCAASMGNFNYQTMWWVRQAPGKGLEWVSVIGKTNENIAYADSVKGRFTISRDNSKNTLYLQMNSLRAEDTAVYYCAREWMDHSRPYYYYGMDVWGQGTLVTVSS
# VL: SYELTQPPSVSVSPGQTASITCSGHNLEDKFASWYQQKPGQSPVLVIYRDDKRPSGIPERFSASNSGHTATLTISGTQAMDEADYYCSSQDTVTRVFGGGTKLTVL
# modifications: human IgG1 triple mutant constant region; /note=“Abet0380-GL”
# notes: germlined Abet0380; human IgG1 triple mutant format
# Tests used:
# [1] = tested on: human Abeta peptides (Abeta 1-42, Abeta 1-43, Abeta 1-16, Abeta 12-28, Abeta 17-42, Abeta pyro-3-42, Abeta pyro-11-42); assay: HTRF competition binding experiments with panel of Abeta peptides; conditions: competitor 10 uM down to 0.17 nM; antibody 0.5 nM
# Description: The specificity of Abet0380-GL IgG1-TM was examined in competition binding experiments. In brief Abet0380-GL IgG1-TM (0.5 nM) was incubated (1 hr at room temperature) with a range of different concentrations (10 uM down to 0.17 nM) of a panel of full length, truncate and pyro human Abeta peptides (Abeta 1-42, Abeta 1-43, Abeta 1-16, Abeta 12-28, Abeta 17-42, Abeta pyro-3-42, or Abeta pyro-11-42).
# Following the incubation between Abet0380-GL IgG1-TM and the Abeta peptides N-terminal biotin Abeta 1-42 (1.5 nM) was added followed by a europium cryptate labelled anti-human Fc antibody (0.8 nM) (CisBio Cat. No. 61HFCKLB) and streptavidin-XL^entl (5 nM) (CisBio Cat. No. 611SAXLB). The assay was then incubated for a further 2 hrs at room temperature before reading on an Envision plate reader (PerkinElmer) using a standard homogeneous time resolved fluorescence (HTRF) read protocol. In the absence of competition, the interaction of N-terminal biotin Abeta 1-42 with Abet0380-GL IgG1-TM (in complex with streptavidin-XL^entl and europium cryptate labelled anti-human Fc antibody, respectively) could then be measured via time resolved fluorescence resonance energy transfer (TR-FRET) due to the proximity of the europium cryptate donor and XL^665 acceptor fluorophores. […]
# [2] = tested on: Amyloid beta 1-40 peptide; assay: Total Amyloid beta 1-40 peptide in rat brain homogenates (ELISA); type: in vivo; conditions: Sprague-Dawley rats, 0.25-10 mg/kg weekly over 14 days
# Description: […] Dosing solutions were made just before dosing. Animals were anaesthetized at the time indicated and cerebrospinal fluid (CSF) was aspirated from the cistema magna. CSF samples were centrifuged for 10 minutes at approximately 3000× g at 4° C. within 20 minutes of sampling to remove cells or debris. Samples were then frozen on dry ice and stored at −70° C. for subsequent analysis.
# Animals were sacrificed by decapitation, brain tissue was dissected and Amyloid beta peptides were extracted from brain tissue in diethylamine (DEA; Fluka. Sigma. UK; cat: 31729). Briefly, frozen brain tissue was homogenized in 0.2% DEA and 50 mM NaCl (Merck, USA: cat: 1.06404.1000). Brain homogenates were ultracentrifuged at 133,000×g, for 1 hour. Recovered supernatants were neutralized to pH 8.0 with 2 M Tris-HCl (TRIZMA®-hydrochloride; Sigma, UK; cat: 93363) and stored at −70° C. until analysis. Animal experimentations were performed in accordance with relevant guidelines and regulations provided by the Swedish Board of Agriculture. […]
# Measurement of total Amyloid beta 1-40 peptide in rat brain homogenates was performed using the mouse Amyloid beta (1-40) colorimetric ELISA kit (Invitrogen, UK; cat: KMB3481). […] To stop the reaction, 100 μl of Stop Solution was added to each well and the plate was read within 2 hours at an absorbance of 450 nm. […]
# [3] = molecular target: T1, biotinylated human Amyloid beta 1-42 (Homo sapiens, UniProt P05067); assay: Surface Plasmon Resonance specificity profiling of IgGs (BIAcore2000); type: binding; conditions: peptide 64-1024 nM
# T1 construct: biotinylated human Amyloid beta 1-42 peptide (rpeptide, USA; cat: A1117); purchased rPeptide, USA A1117; host or cells: synthetic peptide
# Description: (§1) Surface Plasmon Resonance was used to verify the specificity of the affinity-optimized IgGs for the human Amyloid beta 1-42 peptide. Briefly, the BIAcore2000 (GE Healthcare, UK) biosensor instrument was used to assess the kinetic parameters of the interaction between each test IgG and a range of small peptides including synthetically-produced human Amyloid beta 1-42 and human Amyloid beta 1-40. These experiments were performed essentially as described by Karlsson et al. (Karlsson et al., 1991).
# (§2) The interaction between each test IgG and each peptide was estimated using assays in which the antibody was non-covalently captured by a protein G surface that was itself amine linked to a proprietary CM5 chip. The interaction between antibody and peptide was observed using a 5 application single cycle approach. The chip surface was regenerated between cycles by paired 40 second injections of 10 mM Glycine pH 2.0 to remove ligand and bound antibody. The test antibody was then reapplied for each peptide injection cycle.
# (§3) Blank reference flow-cell data were subtracted from each IgG dataset and a zero-concentration antibody-only buffer blank was double-reference subtracted from the main dataset.
# [4] = molecular target: T2, unlabelled murine Amyloid beta 1-42 (Mus musculus, UniProt P12023); assay: as above; type: binding; conditions: peptide 64-1024 nM
# T2 construct: unlabelled murine Amyloid beta 1-42 (rPeptide, USA; cat: A1008); purchased rPeptide, USA A1008; host or cells: synthetic peptide
# Description: as §1, §2, §3
# [5] = molecular target: T3, unlabelled murine Amyloid beta 1-40 (Mus musculus, UniProt P12023); assay: as above; type: binding; conditions: peptide 64-1024 nM
# T3 construct: unlabelled murine Amyloid beta 1-40 (rPeptide, USA; cat: A1007); purchased rPeptide, USA A1007; host or cells: synthetic peptide
# Description: as §1, §2, §3
# [6] = listed as Abet0380-GL (germlined) IgG1-TM
# T3 sequence (P12023 672-711): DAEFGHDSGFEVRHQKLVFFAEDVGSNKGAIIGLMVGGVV
# T1 sequence (P05067 672-713): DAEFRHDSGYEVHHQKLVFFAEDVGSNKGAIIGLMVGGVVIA
# T2 sequence (P12023 672-713): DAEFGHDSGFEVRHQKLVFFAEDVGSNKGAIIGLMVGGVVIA
molecule,measurement,setting,value
B1,inhibition of antibody : N-terminal Biotin Abeta 1-42 binding by Abeta 1-16 or Abeta 12-28,[1],No inhibition
same,effect on total Amyloid beta 1-40 peptide in brain tissue,[2],unaffected
same,binding of biotinylated human Amyloid beta 1-42 peptide to immobilized antibody,[3],clear binding
same,binding of biotinylated human Amyloid beta 1-42 peptide to immobilized antibody,[3]; [6],strong binding
same,binding of unlabelled murine Amyloid beta 1-42 peptide to immobilized antibody,[4],clear binding
same,binding of unlabelled murine Amyloid beta 1-42 peptide to immobilized antibody,[4]; [6],strong binding
same,binding of unlabelled murine Amyloid beta 1-40 peptide to immobilized antibody,[5],no discernable binding
same,binding of unlabelled murine Amyloid beta 1-40 peptide to immobilized antibody,[5]; [6],no binding
